B1: unnamed (protein)
chain: MNSNRTVPLRRAAIAVVLALTLVACDWKGPAPTDASLTAASGPFAVSTLAVPSSAGFGGGTIYYPSNVDGPFAAISVSPGFFSTQSAIAAWGPRLASHGFVVITINTTSLLADPTQRSTEQRQALAHVVNQGNTASSPIFGLVDGNRTGVAGHSMGGGASLISAQADPSIDAAMPFAPWNLGTNFAGITSPTLVLACQADGVAAPNSMASPMYNSIPATTKKMYLSVTNGDHSCANAPTGGNNDVGRYGVAFFKRWLDSDTRYDPWMCGASAPTAGGALNEVRSTCPF
B2: unnamed (protein)
chain: MQRKRYNTITNRARASLLAGVGLAFFSVLAQADVLFQENFDSSLGQFTSTGSVSVTTSGARMAGSFGGTDGAITSSPISTVGFTGITLTLTRTTTGLDSGEAGIAEFSTNGSTYTVIQSLQTASGAVTLNLPATAGGQSSLRLRFRVNASSSTEYFTVDSIRLEGTPGSGGGGGGTNPYQRGPAPTTSSLDASRGPFSVGSRTVSDTQVSGYDGGTLWYPTNTSEGPFAAIAIIPGFLSSEGSIREWGPRLASWGFVVITVETLTYGDLPPSRRDQLIAAMNDVLMWSDQSGHPIYGKVDKTRQALMGWSMGGGGTLLGLQENPTRFKAGIGLAPWNSTETFTSSIRQPVLIFACESDIIAPVASHAYPFYRNMPTTNKKAFAEVNNGDHFCANDPRNNSGRLGRYGVSWMKRFLDDDTRFTQFLCGTHSTWTFSRYLSTCPY
B3: unnamed (protein)
chain: MKSQFRKKIKKAKLESALKVFGAFMFASAISTPAAFAINPGGNSDGNSDAGCNSNCSLGIDPTSEMLEKEQGPYVIDYIDIPKSVAGFAGGRIHFPKGLDQRLGLVVIGPGFLYTDESSSRWLGPRLASNGFVTVNINFNTVMDQPDMRANQYDKALDYVIKLSKDSSSPLYGLVDENRLGAAGWSMGGGAALKLSNMRPLKAIMPWAPWYIPAGAFSSVQTPSLIIACKGDIIAPEGIHASAFYNVIPDSTPKEYVKFAKGNHWCSNNRSNYKPLIGKLSIAWFKRFMDEDNRYEKFICDGDIKDESGVAEFRDNCGSWK
B4: unnamed (protein)
chain: MKGIRTRVLPVGKKNTGVKMRCAWRRRVSAFTQSAILHNTHSQETPVMSDPRLSVARLAWAGILLMGAASATCQAQTNPFERGPDPTSSLLNASAGPLATASVAVASPTGFGGGTIYYPTAANTYGVIALCPGFTGTQSSVAWLGSRLASHGFVVVTMNTNSSLDFPASRATQLMAALNHVINNSNATVKSRIDPNRRAVGGHSMGGGGSLIAAQNNPSLKGAYPLTPWNTSTNFSGVGVPTMIIGADGDTTAPVGSHARPFYASLPAATLKAYGELNGATHSTPTSTNTPTGRYAVSWMKRFVDTDTRYSPFLCGAEHTSYATATVFDRYQQNCPY
B5: unnamed (protein)
chain: MKFEPLPGASPAVQPSMRFVLKRAGMATALLLSSFAAQAQVALVQENFSAGLGNFTAVGTVNTSDGSARLQGCYGCTDAVITSNAISTQGFTNLSLSFDRATAGLDTGEAGTAEFSTDGANWTIVESTRTTTTGRVSFALPASAAAQAALRLRFRINASLSSETYVVDNIQLTGTPGDPGDPDDPGANPFAKGPNPTAELLESSTGPFTYSSTVVARSAASGYGGGTIYHPTNVAGPFAAIAISPGYTGTKSTMSWWGQRLASHGFVVITIDTNSTTDQPSSRATQLMASLRQLVTFSNTSSHPIYRKVDPNRLGVMGHSMGGGGTLIAARDNPTLKAAIPLAPWSSVGNTNFSSVQVPTLVVACEADAIAPVAQHASPFYNSISGSTRKAYIEMNNGDHLCVMTGNSYTRIMGKYGVSWMKRFMDNDTRYSPFLCGAPHQADLSNAQVSEYRENCPY
B6: unnamed (protein)
chain: MKSFLKKIYLGTGMLLVSANALSYTPAPTPNPTPITTPVECQDDCDFSRGPNPTSSSIEGVGPYSVATQNVPSSVSGFGGGTIHYPRGISGTVGAIAVVPGFVSPESSIIWWGPRLASHGFVVITIATNSIFDQPASREAQLGRALDYVINQNNSSNSPISGLVDTSRLGAMGWSMGGGGSLRLASGDRLSAVIPLAPWNEGSRGFRQLETPTLVIACERDLIAPVGVHASPFYNAIPSTTDKAFLEVNNGSHSCANGGGINGGLLSKYGVSWMKRFIDNDTRYQQFLCGPNHAANPAISEYRDTCNY
B7: unnamed (protein)
chain: MRARTRLTALAAGLTLALGAPAATAATADQAQPAASASVEHGPAPTKESIGVDGPYKVASKKAPIDLKRSFYGGTIYYPADAGKGETYGTVVTMPGFLEPGAVMDLVAKRLASHGFVVMRAEALTPFSIPLVRAQAVLSAQKVLHADADLAPIMDTERTALVGHSMGGGGVLHAAAMSEQDAVIPIHPWAQTIFPLVKEPTLTIGGLLDNVAPMVEYTLPIYASIGSETKGLFTDLAGTHWAGLVDNKVIQGRILSFVKLHVDGDTRYEQFVCAPAEKGFTYKSPC
B8: unnamed (protein)
chain: MFPYVAVRVTEETNSRRTTLSNKAATRVSFNRQETDVKFKFVKTALVAAAMACSASAFAQYQKGPDPTTSSLERAGSFATRTLNVSSLSASGFGGGRIWYPTASGSYGVVAVSPGFTGTASTMYFWGERLSSHGFVVIVIETNTLYDQPDSRARQLTSALNYVVSQGNSRTSALYGKVDGNRRAVAGHSMGGGGTLIAAADNPSLKAAIPMAPWNLSSLSFSRIRVPTFIFSCQSDAIAPVAQHSNPFYNAIPSTTSKNLVEMRLDDHFCVMNGGGHYETLGKLGIAWVKRFVDQDTRYSKFLCGNEYNSTVRSTEVSSNRNNCPY
B9: unnamed (protein)
chain: MLLVSANALSYTPAPVANPAPIAAPAPCQDCDFNRGPNPTNSSVERLGPYSVATQRVSSSVSGFGGGTIHYPTNIAGKVGAIAVVPGFVSPESSIRWWGPQLASHGFVVITIATNSIFDQPSSRERQLGRALDYVINQTNSSGTAISGLVDTNRLGAMGWSMGGGGSLRLANGGRLSAVIPLAPWNEGASGFSQLTTPTLVVACENDLIAPVRVHASPFYNVIPNTTDKAFLEVNNGSHSCANGGGVNGGLLSKYGVSWMKRFIDEDTRYQQFLCGPNHSANPAISEYRDTCNY
B10: unnamed (protein)
chain: MKTTQFLRTAVCTFTLSFSLTAFSGGGGGSSDNDGNLPTPNSCTSNCGFEIGPNPNLNFVRASQGPLPVSTTTVASSVDGFGGGTIYYPSNISDEVAAIAISPGFTARQSSIAWWGPILASHGFVVITIDTNSRFDQPDSRGRQLDSSLSYLINESNRSNSPISGRVDDSRLAAMGHSMGGGGSLRSAARNRLSAAMPLAPFRVGGNDFDQIRVPTMIMACENDVVAPVGVHARPFYNRIPGSTDKVLLEINNGSHSCANGESSGNRPLLSTYGVSWMKRFLDKDRRYNQFLCGPNHEANSQISDFRDTCNF
B11: unnamed (protein)
chain: MTTSNTRTLARLALAAAALLLSAAAQAQANPYQRGPDPTAASLEATAGPFAVATTKVASPSGYGGGTVYYPTTTEGPFGLIAVAPGFTETQSAISWWGPRLASHGFVVITIDTKSTLDQPASRAKQLMAALNYVVALSQTSSSPFYGKVDASRQGVMGHSMGGGGTLEAARDNPTLKAAIPLAPWNTTKNFSKVTVPTLIIACENDAIAPVSSHASPFYDSLPSSLDKAYLELKGADHFCTNSSATNKTVIGKYGVAWMKRFVDNDTRYSPFLCGAPHQADLSGSVISRYKDNCPY
B12: unnamed (protein)
chain: MISTRRFPMRRLAIGLVFVFAAVLGACDWRGPTPTEQLLTASTGPFTVSTLAVPTSAGFGGGTIYYPSTTPGPFAVVSLSPGFTESQSAIAGWGPRLASHGFVTIIINTSNPFIDPSQRSTEQRQALTYVVTQGQTSGSPIFGKVDGQRRGVGGHSMGGGASLISAQADPTIRAVMPMAPWNSSASFPGITSPTLILACQNDGIAPVGSHASPMYNSIPASTKKEYISVAGGDHSCANAPTGGGSAVGKFGVAFLKRFLDNDGRYDPWTCGASKPVAGGSLSEVRSTCPF
B13: unnamed (protein)
chain: MPSADEPDAGTAPPPEPGSNHWERGPEPTAESASMPGPYQVESLTAELPDRVEYLSQTLWYPTDAEPPFAGFAIVPGFVSPEGSIAEWGPFLASHGIVVLTIGTNTGGDLPDVRALALAAAVEVLKGEHTRSGSPLEGSMDTDRMAVGGWSMGGGGTLLAIAADPSLKAGIGLTPWHIGALPFTEISVPTLMFAGTADVLAGGMSQGFYDAIPASTPKTLFEILGADHFYSNNPLLPNIEVGRYGLSWLKVFLEGDERYRQFLSVEPMGASDFRTTAP
B14: unnamed (protein)
chain: MASRQSKTRLTRRAKLTALAAATLLSFAAQAQTVIFSENFGSGLGQFTTSGTVSTSSGAAVIQGCYNCTDGAIVSKSISTVGYTGLKLSYDRSTTGLDSGEYGVSAYLVSGGAWTAIENITSSSGRVTLTLPAAVENQASVQLRFRVSSSLSTETLTVDNVVLEGTSASGGGGGGAGYEKGPNPTNAALEASAGPFTVATKAVSASSASGYGGGTIYYPTNVTGTLGAVVVIPGYTAYQSSVSWWGSRLASHGFVVMTIDTNSIYDLPPARATQLMAAVNQLKVFNATAGHVIQGKIDTTRMGIMGWSYGGGGTLIAARDNPSLKAAIPFAPKTTTGTDFSGITMPTLIIGCESDSTAPVSSWSIPFYNSIPAAVKKAYLEVNNGDHFCPTTSGPSSVKPILGKYGVSWMKRWLDNDTRYSTFLCGSPHTTDLGNTAVISEYRDNCPY

Substrate in the data set: BHET
The settings on record: 120 h.
With B1, the plate clearing entry is on record as “not clears the plate”.
On to B2, for which the plate clearing entry was “not clears the plate”.
In the case of B3, the plate clearing entry is recorded as “not clears the plate”.
The value for B4 was “not clears the plate”.
Then B5, with “clears the plate (z > 3 vs empty vector)”; and B6, with “not clears the plate”; and B7, with “not clears the plate”.
Then B8, with “not clears the plate”; and B9, with “not clears the plate”; and B10, with “not clears the plate”.
Regarding B11, the plate clearing result is reported as “not clears the plate”.
The value for B12 was “not clears the plate”.
The value for B13 was “not clears the plate”; that for B14 was “not clears the plate”.

These data come from the PETadex activity labels.
